Experimental findings from IntAct's records for PubMed 24879834 are described below.

The labels stand for the following.
B1: TBC1 domain family member 1 (Homo sapiens), Q86TI0 (parent)
chain: MEPITFTARKHLLSNEVSVDFGLQLVGSLPVHSLTTMPMLPWVVAEVRRLSRQSTRKEPVTKQVRLCVSPSGLRCEPEPGRSQQWDPLIYSSIFECKPQRVHKLIHNSHDPSYFACLIKEDAVHRQSICYVFKADDQTKVPEIISSIRQAGKIARQEELHCPSEFDDTFSKKFEVLFCGRVTVAHKKAPPALIDECIEKFNHVSGSRGSESPRPNPPHAAPTGSQEPVRRPMRKSFSQPGLRSLAFRKELQDGGLRSSGFFSSFEESDIENHLISGHNIVQPTDIEENRTMLFTIGQSEVYLISPDTKKIALEKNFKEISFCSQGIRHVDHFGFICRESSGGGGFHFVCYVFQCTNEALVDEIMMTLKQAFTVAAVQQTAKAPAQLCEGCPLQSLHKLCERIEGMNSSKTKLELQKHLTTLTNQEQATIFEEVQKLRPRNEQRENELIISFLRCLYEEKQKEHIHIGEMKQTSQMAAENIGSELPPSATRFRLDMLKNKAKRSLTESLESILSRGNKARGLQEHSISVDLDSSLSSTLSNTSKEPSVCEKEALPISESSFKLLGSSEDLSSDSESHLPEEPAPLSPQQAFRRRANTLSHFPIECQEPPQPARGSPGVSQRKLMRYHSVSTETPHERKDFESKANHLGDSGGTPVKTRRHSWRQQIFLRVATPQKACDSSSRYEDYSELGELPPRSPLEPVCEDGPFGPPPEEKKRTSRELRELWQKAILQQILLLRMEKENQKLQASENDLLNKRLKLDYEEITPCLKEVTTVWEKMLSTPGRSKIKFDMEKMHSAVGQGVPRHHRGEIWKFLAEQFHLKHQFPSKQQPKDVPYKELLKQLTSQQHAILIDLGRTFPTHPYFSAQLGAGQLSLYNILKAYSLLDQEVGYCQGLSFVAGILLLHMSEEEAFKMLKFLMFDMGLRKQYRPDMIILQIQMYQLSRLLHDYHRDLYNHLEEHEIGPSLYAAPWFLTMFASQFPLGFVARVFDMIFLQGTEVIFKVALSLLGSHKPLILQHENLETIVDFIKSTLPNLGLVQMEKTINQVFEMDIAKQLQAYEVEYHVLQEELIDSSPLSDNQRMDKLEKTNSSLRKQNLDLLEQLQVANGRIQSLEATIEKLLSSESKLKQAMLTLELERSALLQTVEELRRRSAEPSDREPECTQPEPTGD
partner: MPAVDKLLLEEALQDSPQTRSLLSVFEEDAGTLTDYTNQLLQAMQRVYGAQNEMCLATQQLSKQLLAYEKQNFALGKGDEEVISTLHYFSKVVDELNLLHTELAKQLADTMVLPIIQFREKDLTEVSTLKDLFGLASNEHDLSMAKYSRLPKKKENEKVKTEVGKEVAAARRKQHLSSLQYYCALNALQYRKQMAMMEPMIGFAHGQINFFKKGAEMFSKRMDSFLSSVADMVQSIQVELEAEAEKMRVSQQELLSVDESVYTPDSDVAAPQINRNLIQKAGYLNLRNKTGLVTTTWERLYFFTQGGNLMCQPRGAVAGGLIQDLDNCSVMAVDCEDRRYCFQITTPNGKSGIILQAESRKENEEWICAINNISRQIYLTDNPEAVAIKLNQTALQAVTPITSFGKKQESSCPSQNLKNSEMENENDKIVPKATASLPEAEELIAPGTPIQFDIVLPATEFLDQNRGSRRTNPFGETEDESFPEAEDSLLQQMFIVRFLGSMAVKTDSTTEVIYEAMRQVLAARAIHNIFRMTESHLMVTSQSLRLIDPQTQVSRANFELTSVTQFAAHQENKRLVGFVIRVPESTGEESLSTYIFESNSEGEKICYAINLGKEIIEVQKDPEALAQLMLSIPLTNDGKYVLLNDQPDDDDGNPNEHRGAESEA

In this assay the parent is B1. The conditions noted are these: with dp13b_human APPL2, Q8NEU8.
In the case of S237A, the “effect of a mutation on the interaction” value was “with no effect”.

In the case of S235A, the “effect of a mutation on the interaction” value is reported as “disrupting interaction strength”.
